# Patent US20220356229A1 (published 2022)
# B1: anti-SARS-CoV-2 antibody 851 (antibody, V domains shown)
# VH: QITLKESGPTLVKPTQTLTLTCTFSGFSLSTNGVGMGWIRQPPGKALEWLALIYWDDDQFYSPSLKSRLTITRDTSKNQVVLTMTNMDPVDTATYYCAQAFYESFGFYSWGQGTLVTVSS
# VL: NFMLTQPHSVSESPGKTVIISCTRSIGSIASNYVQWYQQRPGSAPTIVVFEDNERPSGVPDRFSGSIDRSSNSASLTISGLKTEDEADYYCQSYDGSSELVFGGGTKLTVLG
# B2: anti-SARS-CoV-2 antibody 1015 (antibody, V domains shown)
# VH: EVQLVESGGGLVQPGGSLRLSCAASGFTFSSYWMHWVRQAPGKGLVWVSHINSDGSSTSYADSVKGRFTISRDNAKNTLYLQMNSLRAEDTAVYYCARGLRYFDLDVWGQGTTVTVSS
# VL: QSVLTQPPSVSEAPRQRVTISCSGSSSNIGNNAVNWYQQLPGKAPKLLIFYDDLLPSGVSDRFSGSKSGTSASLAISGLQSEDEADYYCAAWDDSLNGGVFGGGTKLTVLG
# B3: anti-SARS-CoV-2 antibody 894 (antibody, V domains shown)
# VH: QVQLVQSGAEVKKPGASVKVSCKVSGYTLPELSIHWVRQAPGKGLEWMGGFDPENAETIYTQKFQGRLTMTEDTSTDTAYMELSSLRSEDTAMYYCATSFVLMPAALGDYSYYYGMDVWGQGTTVTVSS
# VL: not shown
# B4: anti-SARS-CoV-2 antibody 1075 (antibody, V domains shown)
# VH: QVQLVQSGAEVKKPGASVKVSCKVSGYTLIELSMHWVRQAPGKGLEWMGGFDPEDGETIYAQKFQGRVTMTEDTSTDTAYMELSSLRSEDTAVYYCATEWAYYGSGSYLGYWGQGTLVTVSS
# VL: EIVMTQSPATLSVSPGERATLSCRASQSVSSNLAWFQQKPGQAPRLLIYGASTRVTVIPARFSGSGSGTEFTLTISSLQSEDFAVYYCQQYNNWPRTFGQGTKVEIKR
# B5: anti-SARS-CoV-2 antibody 896 (antibody, V domains shown)
# VH: EVQLVESGGGVVQPGGSLRLSCAASGFTFDDYAMHWVRQVPGKGLEWVSLISGDGGSTYYADSVKGRFTISRDNSKNSLYVQMNSLRTEDTALYYCVKDRGGSGWDLNHYYYGMDVWGQGTTVTVSS
# VL: DIQLTQSPSFLSASVGDRVTVTCRASQGISSYLAWYQQKPGKAPKLLIYAAYTLQSGVPSRFSGSGSETEFTLTISSLQPEDFATYYCQQVKSYPLTFGGGTKVEIKR
# B6: anti-coronavirus antibody 571 (antibody, V domains shown)
# VH: EVQLVESGGGLVQPGGSLRLSCAASGFTFSTYWMTWVRQAPGKGLEWVANIKHDGSGKYHVDSVKGRFTISRDNAKNSLYLQMNSLRAEDTAVYYCTRDEGGWYDYWGQGTLVTVSS
# VL: QSALTQPASVSGSPGQSITISCTGTSSDVGSYNPVSWYQQHPGKAPKVMIYEGSKRPSGVSNRFSGSKSGNTASLTISGLQAEDEADYYCCSYARSSTFVVFGGGTKLTVL
# B7: anti-coronavirus antibody 566 (antibody, V domains shown)
# VH: QVQLVQSGAEVKKPGASVKVSCKASGYTFTSYAMHWVRQAPGQRLEWMGWINAGNGNTKYSQKFQGRVTITRDTSASTAYMELSSLRSEDTAVYYCARDLGVAVTLHPADFDYWGQGTLVTVSS
# VL: QSVLTQPPSVSGAPGQRVTISCTGSSSNIGAGYDVHWYQQLPGTAPKLLIYDNSNRPSGVPDRFSGSKSGTSASLAITGLQAEDEADYYCQSYDSSLSAVVFGGGTKLTVL
# Biological target: T1, SARS-CoV full length Spike protein, wild type, expressed on CHO cells (SARS-CoV, UniProt P59594 14-1255)
# Assay: flow cytometry, live cell assay on transfected CHO cells
row,Binder,binding result
1,B1,no binding
2,B2,no binding
3,B3,no binding
4,B4,no binding
5,B5,no binding

# Biological target: SARS-CoV Spike protein (SARS-CoV, UniProt P59594 14-1190)
# Assay: not given
row,Binder,binding signal (fold over isotype control)
1,B6,1.28 fold over isotype control
2,B7,0.97 fold over isotype control

# Biological target: SARS-CoV-2 full length Spike protein, wild type, expressed on CHO cells (SARS-CoV-2, UniProt P0DTC2 14-1273)
# Assay: not given
row,Binder,"median fluorescence intensity, fold over isotype control"
1,B1,60 fold over isotype
2,B2,30.5 fold over isotype
3,B3,77.7 fold over isotype
4,B4,78.7 fold over isotype
5,B5,70.3 fold over isotype

# Biological target: T1, SARS-CoV full length Spike protein, …
# Assay: not given
row,Binder,"median fluorescence intensity, fold over isotype control"
1,B1,0.62 fold over isotype
2,B2,0.89 fold over isotype
3,B3,0.67 fold over isotype
4,B4,0.86 fold over isotype
5,B5,0.69 fold over isotype
